From patent publication US20140072613A1, “Compositions and Methods for Treating Cutaneous Scarring” (priority 2012, published 2014)

How the values were obtained:
Fgr(h) (human), P09769 = experiment: cell-based or functional assay
LOK(h) (human), O94804 = experiment: cell-based or functional assay
EphA2(h) (human), P29317 = target: T1, EphA2(h) (human), P29317; experiment: cell-based or functional assay
T1 chain: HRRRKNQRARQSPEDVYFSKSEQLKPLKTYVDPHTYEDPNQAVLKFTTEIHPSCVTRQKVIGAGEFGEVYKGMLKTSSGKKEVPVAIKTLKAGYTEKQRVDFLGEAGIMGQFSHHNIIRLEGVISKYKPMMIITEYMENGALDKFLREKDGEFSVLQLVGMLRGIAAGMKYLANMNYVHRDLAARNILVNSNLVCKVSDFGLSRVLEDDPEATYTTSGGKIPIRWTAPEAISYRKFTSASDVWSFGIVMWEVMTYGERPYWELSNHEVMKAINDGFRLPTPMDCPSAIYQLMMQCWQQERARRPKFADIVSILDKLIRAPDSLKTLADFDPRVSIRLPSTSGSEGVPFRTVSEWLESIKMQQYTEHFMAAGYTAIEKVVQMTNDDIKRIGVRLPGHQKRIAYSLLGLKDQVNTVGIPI

DRAK1(h) (human), Q9UEE5 = target: T2, DRAK1(h) (human), Q9UEE5; experiment: cell-based or functional assay
T2 chain: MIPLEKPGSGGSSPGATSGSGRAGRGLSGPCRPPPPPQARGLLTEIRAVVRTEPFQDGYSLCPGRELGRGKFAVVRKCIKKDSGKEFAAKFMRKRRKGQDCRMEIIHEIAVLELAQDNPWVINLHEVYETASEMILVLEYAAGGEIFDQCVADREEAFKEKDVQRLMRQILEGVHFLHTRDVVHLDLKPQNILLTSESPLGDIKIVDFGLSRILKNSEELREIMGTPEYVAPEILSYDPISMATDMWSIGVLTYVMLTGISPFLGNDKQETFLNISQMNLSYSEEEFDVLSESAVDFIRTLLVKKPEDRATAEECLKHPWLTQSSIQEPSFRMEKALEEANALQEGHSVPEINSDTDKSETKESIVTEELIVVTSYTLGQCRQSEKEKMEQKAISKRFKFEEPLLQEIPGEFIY

CaMKI(h) (human), Q14012 = experiment: cell-based or functional assay
Chain of CaMKI(h) (human), Q14012 (Q14012 whole entry): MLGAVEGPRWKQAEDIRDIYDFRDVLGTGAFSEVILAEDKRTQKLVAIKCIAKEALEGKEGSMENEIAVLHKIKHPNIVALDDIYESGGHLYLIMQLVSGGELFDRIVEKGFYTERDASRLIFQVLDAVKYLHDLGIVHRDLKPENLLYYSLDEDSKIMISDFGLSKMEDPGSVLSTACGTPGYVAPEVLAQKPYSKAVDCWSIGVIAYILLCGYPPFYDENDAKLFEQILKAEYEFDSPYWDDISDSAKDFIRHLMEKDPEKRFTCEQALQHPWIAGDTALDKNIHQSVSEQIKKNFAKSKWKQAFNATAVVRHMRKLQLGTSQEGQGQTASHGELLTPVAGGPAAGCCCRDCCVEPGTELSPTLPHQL

MSK1(h) (human), O75582 = experiment: cell-based or functional assay
DMPK(h) (human), Q09013 = target: T3, DMPK(h) (human), Q09013; experiment: cell-based or functional assay
T3 chain: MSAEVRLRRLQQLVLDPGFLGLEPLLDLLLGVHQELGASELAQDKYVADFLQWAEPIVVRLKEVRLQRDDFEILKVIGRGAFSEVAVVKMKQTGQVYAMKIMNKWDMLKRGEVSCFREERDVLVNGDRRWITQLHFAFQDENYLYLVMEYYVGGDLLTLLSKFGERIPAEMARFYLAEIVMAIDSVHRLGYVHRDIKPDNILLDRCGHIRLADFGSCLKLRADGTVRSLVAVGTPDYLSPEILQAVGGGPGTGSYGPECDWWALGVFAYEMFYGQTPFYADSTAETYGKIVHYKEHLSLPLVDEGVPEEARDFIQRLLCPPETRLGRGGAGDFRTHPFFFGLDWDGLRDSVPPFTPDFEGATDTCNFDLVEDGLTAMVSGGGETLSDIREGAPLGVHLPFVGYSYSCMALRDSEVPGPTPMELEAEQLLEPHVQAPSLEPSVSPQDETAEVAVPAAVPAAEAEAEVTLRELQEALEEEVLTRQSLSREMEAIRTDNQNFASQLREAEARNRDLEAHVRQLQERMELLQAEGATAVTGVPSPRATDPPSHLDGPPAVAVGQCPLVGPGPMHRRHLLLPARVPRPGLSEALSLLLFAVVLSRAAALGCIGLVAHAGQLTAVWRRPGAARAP

Pim-1(h) (human), P11309 = experiment: cell-based or functional assay
Chain of Pim-1(h) (human), P11309 (P11309 whole entry): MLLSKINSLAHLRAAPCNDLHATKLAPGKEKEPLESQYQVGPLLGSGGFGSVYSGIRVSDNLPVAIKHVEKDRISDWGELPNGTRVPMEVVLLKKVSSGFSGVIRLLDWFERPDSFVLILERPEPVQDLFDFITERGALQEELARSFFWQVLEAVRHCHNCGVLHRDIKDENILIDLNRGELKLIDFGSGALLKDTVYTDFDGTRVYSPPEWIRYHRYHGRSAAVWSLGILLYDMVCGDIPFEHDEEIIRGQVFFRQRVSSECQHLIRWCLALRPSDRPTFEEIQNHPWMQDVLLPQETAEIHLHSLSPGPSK

[1] = target: EGFR(L861Q)(h) (human), P00533; experiment: cell-based or functional assay
[2] = target: MAPKAP-K2(h) (human), P49137; experiment: cell-based or functional assay
[3] = target: MAPKAP-K3(h) (human), Q16644; experiment: cell-based or functional assay
Yes(h) (human), P07947 = experiment: cell-based or functional assay
FGFR2(h) (human), P21802 = target: T4, FGFR2(h) (human), P21802; experiment: cell-based or functional assay
T4 chain: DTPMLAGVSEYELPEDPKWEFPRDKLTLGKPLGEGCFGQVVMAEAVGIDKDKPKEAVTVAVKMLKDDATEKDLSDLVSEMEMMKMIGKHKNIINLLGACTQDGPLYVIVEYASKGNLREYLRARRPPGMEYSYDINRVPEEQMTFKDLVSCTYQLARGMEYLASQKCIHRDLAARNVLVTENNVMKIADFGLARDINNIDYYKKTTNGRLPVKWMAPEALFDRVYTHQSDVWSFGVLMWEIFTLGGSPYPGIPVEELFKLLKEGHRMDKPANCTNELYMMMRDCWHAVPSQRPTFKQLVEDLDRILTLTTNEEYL

TrkB(h) (human), Q16620 = experiment: cell-based or functional assay
Chain of TrkB(h) (human), Q16620 (Q16620 455-822 limits assumed): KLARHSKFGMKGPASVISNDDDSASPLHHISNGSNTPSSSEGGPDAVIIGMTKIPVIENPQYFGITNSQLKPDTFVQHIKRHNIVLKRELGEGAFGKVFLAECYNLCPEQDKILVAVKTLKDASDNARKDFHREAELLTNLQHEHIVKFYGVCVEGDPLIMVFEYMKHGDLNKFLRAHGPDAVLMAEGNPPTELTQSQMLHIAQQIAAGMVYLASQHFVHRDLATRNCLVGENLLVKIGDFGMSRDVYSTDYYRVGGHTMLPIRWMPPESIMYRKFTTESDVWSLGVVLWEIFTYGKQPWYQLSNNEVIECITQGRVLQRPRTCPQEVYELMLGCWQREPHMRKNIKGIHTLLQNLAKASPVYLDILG

Fes(h) (human), P07332 = experiment: cell-based or functional assay
[4] = target: CaMKIδ(h) (human), Q8IU85; experiment: cell-based or functional assay
Chain of CaMKIδ(h) (human), Q8IU85 (Q8IU85 whole entry, stated change not applied): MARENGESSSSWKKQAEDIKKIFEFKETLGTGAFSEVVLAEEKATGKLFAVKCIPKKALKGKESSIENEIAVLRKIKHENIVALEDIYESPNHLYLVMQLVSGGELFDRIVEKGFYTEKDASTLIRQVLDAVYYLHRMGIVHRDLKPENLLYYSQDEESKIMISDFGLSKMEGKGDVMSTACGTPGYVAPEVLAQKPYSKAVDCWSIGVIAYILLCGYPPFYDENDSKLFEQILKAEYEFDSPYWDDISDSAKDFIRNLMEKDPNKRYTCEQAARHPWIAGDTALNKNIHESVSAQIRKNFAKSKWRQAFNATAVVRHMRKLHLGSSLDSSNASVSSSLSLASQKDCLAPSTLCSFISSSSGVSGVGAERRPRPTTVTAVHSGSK

[5] = target: Angiotensin 2 (off-target receptor); experiment: Cerep binding assay, competition with a radiolabelled ligand
[6] = target: T5, Neurokinin 2 (off-target receptor) (Homo sapiens (Human)), P21452; experiment: as above
T5 chain: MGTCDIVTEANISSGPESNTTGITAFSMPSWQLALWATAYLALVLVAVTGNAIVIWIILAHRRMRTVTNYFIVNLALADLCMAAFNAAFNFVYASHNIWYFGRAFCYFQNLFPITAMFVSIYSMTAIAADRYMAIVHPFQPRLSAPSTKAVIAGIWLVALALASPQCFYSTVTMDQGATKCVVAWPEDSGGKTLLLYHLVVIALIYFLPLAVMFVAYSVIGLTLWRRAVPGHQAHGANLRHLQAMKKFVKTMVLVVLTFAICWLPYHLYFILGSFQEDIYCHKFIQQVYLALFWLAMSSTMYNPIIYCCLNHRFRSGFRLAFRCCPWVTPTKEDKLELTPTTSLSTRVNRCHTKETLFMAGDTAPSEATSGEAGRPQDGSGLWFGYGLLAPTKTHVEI

[7] = target: Neuropeptide Y (off-target receptor); experiment: as above
[8] = target: Bombesin (off-target receptor); experiment: as above
[9] = target: Vasoactive intestinal peptide (off-target receptor); experiment: as above
[10] = target: Serotonin 2A (off-target receptor) (Homo sapiens (Human)), P28223; experiment: as above
[11] = target: Melanocortin 4 (off-target receptor) (Homo sapiens (Human)), P32245; experiment: as above
[12] = target: Small conductance calcium activated K+ channel; experiment: as above
PKG1α(h) (human), Q13976 = experiment: cell-based or functional assay
Chain of PKG1α(h) (human), Q13976 (Q13976 whole entry): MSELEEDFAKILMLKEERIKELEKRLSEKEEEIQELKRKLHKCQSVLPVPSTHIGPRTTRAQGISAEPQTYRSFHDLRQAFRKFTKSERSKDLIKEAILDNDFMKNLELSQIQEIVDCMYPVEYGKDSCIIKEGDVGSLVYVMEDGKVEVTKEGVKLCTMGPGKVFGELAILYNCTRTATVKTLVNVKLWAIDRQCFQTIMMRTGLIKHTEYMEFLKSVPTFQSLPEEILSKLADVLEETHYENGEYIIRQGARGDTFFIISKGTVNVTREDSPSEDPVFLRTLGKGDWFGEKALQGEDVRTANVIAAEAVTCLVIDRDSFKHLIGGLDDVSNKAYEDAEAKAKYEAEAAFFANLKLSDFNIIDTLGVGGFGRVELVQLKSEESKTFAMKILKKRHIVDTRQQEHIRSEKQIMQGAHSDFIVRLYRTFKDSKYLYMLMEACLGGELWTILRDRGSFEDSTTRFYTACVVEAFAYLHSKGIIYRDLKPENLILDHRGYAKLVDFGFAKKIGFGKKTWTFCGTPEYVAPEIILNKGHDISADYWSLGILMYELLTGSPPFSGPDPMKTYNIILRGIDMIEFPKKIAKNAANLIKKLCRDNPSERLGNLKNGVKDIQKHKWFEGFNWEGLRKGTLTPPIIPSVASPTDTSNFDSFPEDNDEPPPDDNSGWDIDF

[13] = target: Abl(H8396P)(h) (human), P00519; experiment: cell-based or functional assay
Chain of Abl(H8396P)(h) (human), P00519 (P00519 27-1130, stated change not applied): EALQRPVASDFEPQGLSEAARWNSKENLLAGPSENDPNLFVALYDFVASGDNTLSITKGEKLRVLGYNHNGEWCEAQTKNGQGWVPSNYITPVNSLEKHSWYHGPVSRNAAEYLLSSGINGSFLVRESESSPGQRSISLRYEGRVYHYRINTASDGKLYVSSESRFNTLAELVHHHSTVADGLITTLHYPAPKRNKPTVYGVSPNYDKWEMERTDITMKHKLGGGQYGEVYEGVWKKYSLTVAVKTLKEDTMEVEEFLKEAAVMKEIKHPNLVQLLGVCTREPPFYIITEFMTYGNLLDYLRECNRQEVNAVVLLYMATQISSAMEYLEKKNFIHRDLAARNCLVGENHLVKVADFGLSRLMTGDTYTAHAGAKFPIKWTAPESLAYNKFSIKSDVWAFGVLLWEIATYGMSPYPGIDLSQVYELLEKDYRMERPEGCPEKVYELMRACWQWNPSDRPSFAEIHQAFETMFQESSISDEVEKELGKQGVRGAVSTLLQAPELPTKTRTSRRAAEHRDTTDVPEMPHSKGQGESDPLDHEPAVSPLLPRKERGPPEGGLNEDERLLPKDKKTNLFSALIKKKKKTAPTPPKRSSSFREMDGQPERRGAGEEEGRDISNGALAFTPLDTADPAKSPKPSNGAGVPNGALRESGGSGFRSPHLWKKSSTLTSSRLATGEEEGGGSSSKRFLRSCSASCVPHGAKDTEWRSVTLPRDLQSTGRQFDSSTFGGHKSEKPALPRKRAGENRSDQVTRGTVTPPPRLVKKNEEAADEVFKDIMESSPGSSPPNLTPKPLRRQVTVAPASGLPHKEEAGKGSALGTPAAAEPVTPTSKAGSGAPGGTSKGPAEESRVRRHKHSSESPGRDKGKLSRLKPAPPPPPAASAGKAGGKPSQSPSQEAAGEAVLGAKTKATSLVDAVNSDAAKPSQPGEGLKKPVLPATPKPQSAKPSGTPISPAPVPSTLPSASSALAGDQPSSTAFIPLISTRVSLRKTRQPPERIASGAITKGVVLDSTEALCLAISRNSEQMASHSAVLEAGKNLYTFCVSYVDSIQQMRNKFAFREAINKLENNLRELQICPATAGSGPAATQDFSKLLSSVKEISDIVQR

[14] = target: CaMKIIδ(h) (human), Q13557; experiment: cell-based or functional assay
Chain of CaMKIIδ(h) (human), Q13557 (Q13557 whole entry, stated change not applied): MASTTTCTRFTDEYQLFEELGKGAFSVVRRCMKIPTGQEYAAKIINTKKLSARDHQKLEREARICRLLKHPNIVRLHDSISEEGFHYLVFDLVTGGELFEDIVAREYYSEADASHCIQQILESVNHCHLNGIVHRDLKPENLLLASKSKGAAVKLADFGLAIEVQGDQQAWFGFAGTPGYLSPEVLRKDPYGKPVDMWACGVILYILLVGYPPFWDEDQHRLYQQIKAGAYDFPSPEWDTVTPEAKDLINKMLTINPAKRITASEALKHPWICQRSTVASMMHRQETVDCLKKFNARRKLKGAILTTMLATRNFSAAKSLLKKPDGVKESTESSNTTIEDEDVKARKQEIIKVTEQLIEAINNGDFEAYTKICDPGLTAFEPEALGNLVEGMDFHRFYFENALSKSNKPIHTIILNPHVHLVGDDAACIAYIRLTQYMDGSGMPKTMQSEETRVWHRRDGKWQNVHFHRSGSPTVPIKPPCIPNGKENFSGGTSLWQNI

PKCβI(h) (human), P05771 = experiment: cell-based or functional assay
Chain of PKCβI(h) (human), P05771 (P05771 whole entry): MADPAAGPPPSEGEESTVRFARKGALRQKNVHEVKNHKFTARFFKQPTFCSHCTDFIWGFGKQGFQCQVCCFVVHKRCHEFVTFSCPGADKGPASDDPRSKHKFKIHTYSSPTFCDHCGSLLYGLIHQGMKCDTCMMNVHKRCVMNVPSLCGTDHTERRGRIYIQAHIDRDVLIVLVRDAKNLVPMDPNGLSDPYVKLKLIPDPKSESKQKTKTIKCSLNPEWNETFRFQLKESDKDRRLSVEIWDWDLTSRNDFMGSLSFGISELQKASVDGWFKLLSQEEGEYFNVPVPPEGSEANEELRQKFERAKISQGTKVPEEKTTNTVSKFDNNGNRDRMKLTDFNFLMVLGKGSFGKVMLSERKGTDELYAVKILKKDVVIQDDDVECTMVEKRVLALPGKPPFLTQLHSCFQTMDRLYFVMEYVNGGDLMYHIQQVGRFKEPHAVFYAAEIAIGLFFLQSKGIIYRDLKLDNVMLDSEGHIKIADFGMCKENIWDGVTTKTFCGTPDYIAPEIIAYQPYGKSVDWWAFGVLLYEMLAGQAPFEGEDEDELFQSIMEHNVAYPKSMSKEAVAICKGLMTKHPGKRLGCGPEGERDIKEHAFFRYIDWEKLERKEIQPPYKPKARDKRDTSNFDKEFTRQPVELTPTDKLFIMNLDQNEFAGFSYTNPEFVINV

CK1δ(h) (human), P48730 = experiment: cell-based or functional assay
Chain of CK1δ(h) (human), P48730 (P48730 1-294, stated change not applied): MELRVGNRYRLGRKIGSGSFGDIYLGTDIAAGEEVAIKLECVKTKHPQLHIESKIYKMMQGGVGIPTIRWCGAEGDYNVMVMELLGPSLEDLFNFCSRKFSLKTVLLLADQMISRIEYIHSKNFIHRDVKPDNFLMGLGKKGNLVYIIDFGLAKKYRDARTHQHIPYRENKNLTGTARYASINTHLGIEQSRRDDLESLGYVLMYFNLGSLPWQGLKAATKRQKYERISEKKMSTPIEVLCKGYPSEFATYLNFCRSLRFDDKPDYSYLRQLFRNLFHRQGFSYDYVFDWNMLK

B1: MMI-0100 (peptide)
peptide: YARAAARQARAKALARQLGVAA
modifications: not checked
IC50 (kinase activity) (Fgr(h) (human), P09769): 141 µM
IC50 (kinase activity) (LOK(h) (human), O94804): 47.6 µM
IC50 (kinase activity) (EphA2(h) (human), P29317): 181 µM
IC50 (kinase activity) (DRAK1(h) (human), Q9UEE5): 78.3 µM
IC50 (kinase activity) (CaMKI(h) (human), Q14012): 11.7 µM
IC50 (kinase activity) (MSK1(h) (human), O75582): 102 µM
IC50 (kinase activity) (DMPK(h) (human), Q09013): 34.1 µM
IC50 (kinase activity) (Pim-1(h) (human), P11309): 71.7 µM
IC50 (kinase activity) [1]: 128 µM
IC50 (kinase activity) [2]: 12.1 µM
IC50 (kinase activity) [3]: 15.8 µM
IC50 (kinase activity) (Yes(h) (human), P07947): 114 µM
IC50 (kinase activity) (FGFR2(h) (human), P21802): 172 µM
IC50 (kinase activity) (TrkB(h) (human), Q16620): 4.6 µM
IC50 (kinase activity) (Fes(h) (human), P07332): 174 µM
IC50 (kinase activity) [4]: 45.8 µM
% inhibition [5]: < 30%
% inhibition [6]: < 30%
% inhibition [7]: < 30%
% inhibition [8]: < 30%
% inhibition [9]: < 30%
% inhibition [10]: < 30%
% inhibition [11]: < 30%
% inhibition [12]: < 30%

B2: MMI-0300 (peptide)
peptide: FAKLAARLYRKALARQLGVAA
% activity, 100 µM (PKG1α(h) (human), Q13976): 64%
% activity, 100 µM [13]: 101%
% activity, 100 µM [14]: 1%
% activity, 100 µM (PKCβI(h) (human), P05771): 78%
% activity, 100 µM (CK1δ(h) (human), P48730): 92%
% activity, 100 µM [4]: 10%

B3: MMI-0400 (peptide)
peptide: KAFAKLAARLYRKALARQLGVAA
% activity, 100 µM (PKG1α(h) (human), Q13976): 58%
% activity, 100 µM [13]: 105%
% activity, 100 µM [14]: 2%
% activity, 100 µM (PKCβI(h) (human), P05771): 78%
% activity, 100 µM (CK1δ(h) (human), P48730): 93%
% activity, 100 µM [4]: 17%
